# PMC3796022 (Biochemistry, 2013)
# T1: αA66-80 peptide (human)
# T1 peptide: SDRDKFVIFLDVKHF
# B1: recombinant human αB-crystallin (natural protein, UniProt P02511 1-175, looked up)
# chain: MDIAIHHPWIRRPFFPFHSPSRLFDQFFGEHLLESDLFPTSTSLSPFYLRPPSFLRAPSWFDTGLSEMRLEKDRFSVNLDVKHFSPEELKVKVLGDVIEVHGKHEERQDEHGFISREFHRKYRIPADVDPLTITSSLSSDGVLTVNGPRKQVSGPERTIPITREEKPAVTAAPKK
# What was measured:
# cross-linking = target: the molecule itself; test: cross-linking
# αA66-80 peptide = target: T1, αA66-80 peptide; test: bis-ANS fluorescence
# [1] = target: B1; test: cross-linking
binder,measurement,setting,value
B1,binding result,cross-linking,binds
EEKPAVTAAPK [αB-crystallin C-terminal peptide 164–174],binding result,αA66-80 peptide,binds
SDRDKFVIFLDVKHFK (biotin on the added C-terminal lysine (SDRDKFVIFLDVKHFK-Biotin)) [C-terminal biotinylated αA66-80],binding result,[1],binds
